Tests used:
[1] = test system: carbonyl reductase; experiment: Substrate specificity: NADPH-dependent reduction by the carbonyl reductase obtained in Example 1; assay type: biochemical, Torulaspora delbrueckii; details: substrate 5 mM, coenzyme NADPH; reduction of 3,4-dimethoxyphenylacetone regarded as 100
Experimental: (§1) A reaction solution comprising 50 mM potassium phosphate buffer (pH 6.5), 0.2 mM NADPH, 5 mM 3,4-dimethoxyphenylacetone, and an enzyme is reacted at 30° C. Any decrease in absorbance at 340 nm accompanying a decrease in NADPH is measured. 1U is defined as the amount of enzyme which catalyzes a 1 μmol decrease of NADPH in one minute.
(§2) The enzyme obtained in Example 1 was reacted with various ketones, ketoesters, and soon. The activities of the reduction reactions were expressed as relative activities, where the reduction of 3,4-dimethoxyphenylacetone was regarded as 100 (Table 2) (substrate specificity of carbonyl reductase). The activity of dehydrogenating 1-(3,4-dimethoxyphenyl)-2-propanol was measured as follows: A reaction was performed at 30° C. in a reaction solution comprising 50 mM Tris-HCl buffer (pH 8.5), 2.5 mM NADP^+, 5 mM 1-(3,4-dimethoxyphenyl)-2-propanol, and the enzyme. An increase in absorbance at 340 nm, accompanying NADPH production, was measured. 1 U was defined as the amount of enzyme catalyzing the production of 1 μmol NADPH per minute. In addition, the activity of reducing NADH-dependent 3,4-dimethoxyphenylacetone was measured as follows: A reaction was performed at 30° C. in a reaction solution comprising 50 mM potassium phosphate buffer (pH 6.5), 0.2 mM NADH, 5 mM 3,4-dimethoxyphenylacetone, and the enzyme, and decrease in absorbance at 340 nm, accompanying decrease in NADH, was measured. 1 U was defined as the amount of enzyme catalyzing a decrease of 1 μmol NADH per minute.

[2] = test system: carbonyl reductase; experiment: NADH-dependent 3,4-dimethoxyphenylacetone-reducing activity; assay type: biochemical, Torulaspora delbrueckii; details: substrate 5 mM, coenzyme NADH, pH 6.5, 30° C.
Experimental: as §2

[3] = Enzymatic synthesis of (S)-1-(3,4-dimethoxyphenyl)-2-propanol: optical purity and reaction yield; assay type: biochemical; details: 0.25 U carbonyl reductase, 50 mM 3,4-dimethoxyphenylacetone, overnight, 25° C., pH 6.5
Experimental: A reaction was performed overnight at 25° C. in 1 mL of a reaction solution comprising 200 mM potassium phosphate buffer (pH 6.5), 1 mM NADP^+, 2 U glucose dehydroganase (Wako Pure Chemical Industries, Ltd.), 250 mM glucose, 0.25 U carbonyl reductase, and 50 mM 3,4-dimethoxyphenylacetone. The optical purity of the produced (S)-1-(3,4-dimethoxyphenyl)-2-propanol was measured as follows: One mL of ethyl acetate was added to 0.5 mL of the reaction solution to extract (S)-1-(3,4-dimethoxyphenyl)-2-propanol, and the extraction solvent was desolvated. 0.5 mL of a dissolving solution (n-hexane: isopropanol=4:1) was then added to dissolve the extract, which was then analyzed by liquid chromatography using an optical resolution column. CHIRALCEL OF (4.6 mm×25 cm; Daicel Chemical Industries, Ltd.) was used as the optical resolution column. Chromatography was performed with a wavelength of 220 nm, a flow rate of 1.0 mL/min, and at 40° C. using an eluting solution of n-hexane: isopropanol=4:1.
In addition, the (S)-1-(3,4-dimethoxyphenyl)-2-propanol thus-produced was quantified using gas chromatography, and a yield relative to the raw starting material, 3,4-dimethoxyphenylacetone, was obtained. Specifically, the analysis was performed at a column temperature of 210° C., using Thermon 3000 (10%)-Chromosorb W (AW-DMCS, Mesh 60–80; 3.2 mm×210 cm) with a hydrogen flame ionization detector (FID). The resulting reaction yield was about 95%.
To prepare crude enzyme solution for enzyme reaction, the crude enzyme solution prepared in Example 18 was concentrated ten-folds using a UF membrane. This solution was reacted overnight at 25° C. in 1 mL of a reaction solution comprising 200 mM potassium phosphate buffer (pH 6.5), 1 mM NADP^+, 2 U glucose dehydrogenase (Wako Pure Chemical Industries, Ltd.), 250 mM glucose, 0.2 U homolog enzyme, and 50 mM 3,4-dimethoxyphenylacetone. Optical purity was measured and the produced (S)-1-(3,4-dimethoxyphenyl)-2-propanol was quantified as in Example 6. As a result, YGL157w (pSE-YGP7) produced 93.7% ee (S)-1-(3,4-dimethoxyphenyl)-2-propanol at a yield of 66%, YGL039w (pSE-YGD9) produced 93.6% ee at a yield of 94%, and YDR541c (pSE-YDR1) produced 94.8% ee at a yield of 6%.

[4] = 3,4-dimethoxyphenylacetone-reducing activity of the purified enzyme (specific activity, pH and temperature dependency); assay type: biochemical, Torulaspora delbrueckii; details: 3,4-dimethoxyphenylacetone reduction, NADPH, pH 6.5, 30° C.
Experimental: as §1
The specific activity of the purified enzyme was 196 mU/mg.
By changing the pH using potassium phosphate buffer, sodium acetate buffer, and Britton-Robinson buffer, the 3,4-dimethoxyphenylacetone-reducing activity of the enzyme obtained in Example 1 was investigated. Activity at each pH was expressed as a relative activity, where the maximum activity was regarded as 100 (FIG. 2). Optimal pH (showing 80% or more relative activity) was 5.5 to 6.5.
Of the standard reaction conditions, only the temperature was changed, and the 3,4-dimethoxyphenylacetone-reducing activity of the enzyme obtained in Example 1 was then measured. Activity at each temperature was expressed as a relative activity, where the maximum activity was regarded as 100 (FIG. 3). Optimal temperature (showing 80% or more relative activity) was 50° C. to 55° C.

| Molecule | Relative activity [1] [%] | Relative activity [2] [%] | Optical purity of the produced (S)-1-(3,4-dimethoxyphenyl)-2-propanol [3] [% ee] | Reaction yield relative to 3,4-dimethoxyphenylacetone [3] | Specific activity of the purified enzyme [4] [mU/mg] |
| --- | --- | --- | --- | --- | --- |
| COc1ccc(CC(C)=O)cc1OC [3,4-Dimethoxyphenylacetone] | 100 | 0.0 | – | – | – |
| carbonyl reductase: NADPH-dependent carbonyl reductase purified from Torulaspora delbrueckii JCM 5921; amino acid sequence SEQ ID NO: 2 (protein, listed as Torulaspora delbrueckii) MSILVSGATGFIALHVVSDLLKQDYKVIGTVRSQEKADKLRKQFGNNPNLSFELVSDIAAPEAFDKVFQKHGKDIKVVLHTASPFTLETTNYEKDLLLPAVNGTKSILESIKKYAADSVERVVITSSYAAVMNVSKEGDGSIVYTEKDWNPATWENCQIDGLNAYCGSKKLAEKAAWDFFEDNKNVVKFKLSMINPTYVFGPQLFDEDVKDKLNTSCELINSIIKNNPQVGYLLENIKGHFVDVRDVAKAHLVAFQKDEAIGQRLLTSNGRFAYQDLVDIINEDFPQLKGKVIVGKPGAGKQLYGTFPDINNTRSKEILGFEFISLHKSVHDTAAQVLKKEGKL | – | – | ≥ 99 | about 95% | 196 |
